Test results reported in patent US20240190999A1.
Values belong to the binder of their own block, whether it stands above or below them.

Columns and labels:
[1] = molecular target: biotinylated cynomolgus 4-1BB (bio.c4-1BB) (cynomolgus monkey) (UniProt A9YYE7); assay: SPR (ProteOn XPR36); end of the group's range, tied to #44 by Table 15
[2] = molecular target: biotinylated cynomolgus 4-1BB (bio.c4-1BB) (cynomolgus monkey) (UniProt A9YYE7); assay: SPR (ProteOn XPR36), biotinylated c4-1BB immobilised on GLC chip, construct as analyte
[3] = molecular target: biotinylated cynomolgus 4-1BB (bio.c4-1BB) (cynomolgus monkey) (UniProt A9YYE7); assay: SPR (ProteOn XPR36); told of the group, largest difference is that of #47 by Table 15
[4] = molecular target: biotinylated cynomolgus 4-1BB (bio.c4-1BB) (cynomolgus monkey) (UniProt A9YYE7); assay: SPR (ProteOn XPR36); end of the group's range, tied to #47 by Table 15
[5] = molecular target: biotinylated cynomolgus 4-1BB (bio.c4-1BB) (cynomolgus monkey) (UniProt A9YYE7); assay: SPR (ProteOn XPR36), bio.c4-1BB on NLC chip, MpA analyte; mean of triplicate
[6] = molecular target: biotinylated human 4-1BB-Fc (bio.h4-1BB-Fc) (human) (UniProt Q07011); assay: SPR (ProteOn XPR36), sequential injections; 100 nM MpA on 360 RU bio.h4-1BB-Fc on NLC chip
Chain of biotinylated human 4-1BB-Fc (bio.h4-1BB-Fc) (human) (Q07011 24-186 limits assumed): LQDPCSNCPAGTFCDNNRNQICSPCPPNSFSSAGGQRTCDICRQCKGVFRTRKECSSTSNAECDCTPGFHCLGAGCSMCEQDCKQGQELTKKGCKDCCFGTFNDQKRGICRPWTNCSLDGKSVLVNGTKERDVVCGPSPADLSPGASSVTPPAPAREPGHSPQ

[7] = molecular target: biotinylated cynomolgus 4-1BB (bio.c4-1BB) (cynomolgus monkey) (UniProt A9YYE7); assay: SPR (ProteOn XPR36), bio.c4-1BB on NLC chip, MpA analyte; mean of triplicate; apparent affinity (bivalent)

Chain of biotinylated cynomolgus 4-1BB (bio.c4-1BB) (cynomolgus monkey) (A9YYE7 entry or part of it): as the sequence (Q07011 24-186 limits assumed) above, with P4L, N19S, R50K, T66I, P67S, F69Y, G75E, V149A counted along it

B1: bispecific construct #44 (designed binder)
chain: MRGSHHHHHHGSDLGEKLLVAALYGQDDEVRILLAAGADVNAKDQWGLTPLHKAALQGHLEIVEVLLKAGADVNAKDERGHTPLHWAARFGHLEIVEVLLKAGADVNAQDQKGYTPADLAALWGHEDIAEVLQKAAGSPTPTPTTPTPTPTTPTPTPTGSDLGQKLLKAAQEGQDDEVRELLKAGADVNAKDLRGITPLHVAAWQGHLEIVEVLLKAGADVNAKDSKGETPLHLAAFRGHLEIVEVLLKAGADVNAQDQQGETPADLAALAGHVDIAEVLQKLN
- Kd [1]: 1.1 to 2.9 nM
- Kd [2]: 1.12 nM

B4: Multispecific binding protein A (MpA) (designed binder)
chain: GSDLGKKLLEAARAGQDDEVRELLKAGADVNAKDYFSHTPLHLAARNGHLKIVEVLLKAGADVNAKDFAGKTPLHLAAADGHLEIVEVLLKAGADVNAQDIFGKTPADIAADAGHEDIAEVLQKAAGSPTPTPTTPTPTPTTPTPTPTGSDLGKKLLEAARAGQDDEVRELLKAGADVNAKDVLGWTPLHLAAFEGHLEIVEVLLKAGADVNAKDKKGWTPLQLAARTGHLEIVEVLLKAGADVNAKDHIGATPLHLAAWQGHPEIVEVLLKAGADVNAQDKSGKTPADLAADAGHEDIAEVLQKAAGSPTPTPTTPTPTPTTPTPTPTGSDLGQKLLKAAQEGQDDEVRELLKAGADVNAKDLRGITPLHVAAWQGHLEIVEVLLKAGADVNAKDSKGETPLHLAAFRGHLEIVEVLLKAGADVNAQDQQGETPADLAALAGHVDIAEVLQKAAGSPTPTPTTPTPTPTTPTPTPTGSDLGQKLLKAAQEGQDDEVRELLKAGADVNAKDLRGITPLHVAAWQGHLEIVEVLLKAGADVNAKDSKGETPLHLAAFRGHLEIVEVLLKAGADVNAQDQQGETPADLAALAGHVDIAEVLQKAAGSPTPTPTTPTPTPTTPTPTPTGSDLGKKLLEAARAGQDDEVRELLKAGADVNAKDYFSHTPLHLAARNGHLKIVEVLLKAGADVNAKDFAGKTPLHLAAADGHLEIVEVLLKAGADVNAQDIFGKTPADIAADAGHEDIAEVLQKAA
- koff [5]: 2.7e-05 s⁻¹
- kon [5]: 2.1e+06 M⁻¹ s⁻¹
- Binding stoichiometry [6]: 0.7
- Kd [7]: 0.014 nM

Continued by falling Kd [2], values first:

- fold difference in binding affinity as compared to human 4-1BB [3]: < 4 fold
- Kd [2]: 2.9 nM
- Kd [4]: 1.1 to 2.9 nM
B2: bispecific construct #47 (designed binder)
chain: MRGSHHHHHHGSDLGEKLLVAALYGQDDEVRILLAAGADVNAKDQWGLTPLHKAALQGHLEIVEVLLKAGADVNAKDERGHTPLHWAARFGHLEIVEVLLKAGADVNAQDQKGYTPADLAALWGHEDIAEVLQKAAGSPTPTPTTPTPTPTTPTPTPTGSDLGKKLLEAARAGQDDEVRELLKAGADVNAKDTYGETPLHLAAWKGHLEIVEVLLKAGADVNAKDSIGITPLHVAAHHGHLEIVEVLLKAGADVNAKDKWGRTPLHLAALLGHLEIAEVLLKAGADVNAQDKSGKTPADLAADAGHDDIAEVLQKLN

- Kd [2]: 1.48 nM
B3: bispecific construct #49 (designed binder)
chain: MRGSHHHHHHGSDLGEKLLVAALYGQDDEVRILLAAGADVNAKDQWGLTPLHKAALQGHLEIVEVLLKAGADVNAKDERGHTPLHWAARFGHLEIVEVLLKAGADVNAQDQKGYTPADLAALWGHEDIAEVLQKAAGSPTPTPTTPTPTPTTPTPTPTGSDLGKKLLVAANVGQDDEVRILLAAGADVNAKDYHGYTPLHHAATYGHLEIVEVLLKAGADVNAKDQTGLTPLHLAAAKGHLEIVEVLLKAGADVNAQDHHGYTPADLAAFVGHEDIAVVLQKLN
